The record followed here is patent US20220177590A1 (REMEGEN, published 2022).

The term Kd denotes the equilibrium constant for the complex coming apart. A low value points to a tighter complex. A word on the EC50: it is the concentration at which the effect is half-maximal. A lower EC50 goes with an effect from little substance.

The target of assay [1] is T1, human PD-L1 (R&D company), immobilized on Ni-NTA probe (human, UniProt Q9NZQ7 19-239).
T1 construct: Bought protein; also called PD-L1 solution; not shown: His tag only implied by capture on the Ni-NTA probe
The assay can be described thus: BLI, PD-L1 immobilized on Ni-NTA probe, hAAG5D8 at 100, 50 and 25 nM in solution. As for the experimental part: The affinity of hAAG5D8 to human PD-L1 was detected using biolayer interferometry (BLI). The wells in A-D columns 1, 3, and 5 of a black 96-well plate were added with a PBS solution as baseline 1, baseline 2 and a dissociation solution, respectively. The wells in column 2 were added with a PD-L1 solution (R&D company), in column 4 with a hAAG5D8 solution (The concentrations were as follows: 100 nM, 50 nM, 25 nM, and 0 nM), in column 10 with an imidazole solution, in column 11 with water, and in column 12 with a nickel sulfate solution. Ni-NTA probe (Fortebio) was employed in the experiment. First, the probe was dipped in A-D column 1 for 180 seconds to stabilize the baseline. The Ni-NTA probe was then dipped in A-D column 2 for 300 seconds to immobilize PD-L1 on the probe. The Ni-NTA probe was then dipped in A-D column 3 for 120 seconds to stabilize the baseline. The Ni-NTA probe was then dipped in A-D column 4 for 600 seconds to allow the binding of hAAG5D8 with a different concentration to the immobilized PD-L1 protein on the probe. The Ni-NTA probe was then dipped in A-D column 5 for 600 seconds to allow the antibody to dissociate spontaneously. Finally, the Ni-NTA probe was dipped in A-D columns 10, 11, and 12 successively to force the immobilized PD-L1 dissociating from the probe. […]
For orientation: BLI is a label-free optical method that tracks binding on a fibre tip over time.

In assay [2] the target is T2, PD-L1 (Fc Tag) (human, UniProt Q9NZQ7 19-239, limits assumed).
T2 construct: also called human PD-L1; not shown: Fc tag
The experiment in a line: competition ELISA, PD-L1 (Fc Tag) coated, human PD-1 at 6 ug/mL as competitor, anti-human IgG-Fc-HRP detection. As for the experimental part:
(§1) The ability of hAAG5D8 to compete with PD-1 to bind to PD-L1 was tested by ELISA. PD-L1 (Fc Tag) was diluted to 1 μg/mL with a coating buffer (6 mM Na₂CO₃, 14 mM NaHCO₃), and then added 100 μL to each well followed by overnight incubation at 4° C. The plate was then washed with PBST, and added with 250 μL of a blocking solution (3% BSA/PBST) to each well to block for 2 h at 25° C. Afterwards, the plate was washed with PBST and added with 50 μL of human PD-1 at a concentration of 6 μg/mL as well as 50 μL of a gradiently diluted hAAG5D8 solution (at a concentration of 8000 ng/mL, 2000 ng/mL, 500 ng/mL, 250 ng/mL, 125 ng/mL, 62.5 ng/mL, 31.25 ng/mL, 6.25 ng/mL, or 1.25 ng/mL) to each well followed by mixing well and incubation at 25° C. for 2 h. Next, the plate was washed with PBST and added with 100 μL of an enzyme-labeled secondary antibody (goat anti-human IgG-Fc-HRP diluted 1:5000) to each well, followed by incubation at 25° C. for 1 h. Finally, color development was performed and values were read at 450 nm. A four-parameter equation was used for curve fitting to calculate the EC₅₀ value.
(§2) Results and conclusions: EC₅₀ value and the competitive binding curve of hAAG5D8 competitively binding to human PD-L1 are shown in Table 8 and FIG. 2, respectively.
A general note: In an ELISA, binding on a coated surface is turned into a signal by an enzyme label.

Assay [3] concerns the target T2, PD-L1 (Fc Tag). The assay can be described thus: competition ELISA, PD-L1 (Fc Tag) coated, human PD-1 at a fixed concentration as the competing ligand, hAAG5D8 titrated. The procedure: as §1, §2

T2 sequence (Q9NZQ7 19-239 limits assumed): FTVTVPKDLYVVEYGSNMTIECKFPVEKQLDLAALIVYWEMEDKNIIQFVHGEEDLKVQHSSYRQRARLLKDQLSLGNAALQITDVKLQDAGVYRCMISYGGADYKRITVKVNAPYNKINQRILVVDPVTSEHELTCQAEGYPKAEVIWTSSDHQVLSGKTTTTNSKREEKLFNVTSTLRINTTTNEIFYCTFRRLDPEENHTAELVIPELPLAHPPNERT
T1 sequence (Q9NZQ7 19-239): as the sequence (Q9NZQ7 19-239 limits assumed) above

B1: anti-PD-L1 humanized antibody hAAG5D8 (antibody, human IgG1, kappa, V domains shown)
VH: QVQLQESGPGLVKPSETLSLTCTVSGFSLSRYSVHWIRQPPGKGLEWLGMIWGVGTTDYNSALKSRLTISKDTSKNQFSLKLSSVTAADTAVYYCARNWGTADYFDYWGQGTTVTVSS
VL: DIVLTQSPASLAVSPGQRATITCRASKSVHTSGYSYMHWYQQKPGQPPKLLIYLASNLESGVPARFSGSGSGTDFTLTINPVEANDTANYYCQHSGELPYTFGGGTKVEIKR
notes: Humanized from murine mAAG5D8 on a human IgG1 framework; also called anti-PD-L1 antibody
B1 gave a Kd in assay [1] of 76.2 pM. In the assay with PD-L1 (Fc Tag) [2], this molecule returned an EC50 of 716 pM. The “IC50 (read off the curve)” value with PD-L1 (Fc Tag) [3] is about 0.1 µg/mL.
